System: caspase-3 and caspase-7 activities in L929 cells
Test: Caspase-Glo 3/7 apoptosis assay on TNF-α-stimulated L929 cells
Assay type: cell-based, mouse
Details: at 10 nM and 100 nM with TNF-α 1 ng/mL
Description: Apoptosis was detected by measuring caspase-3 and caspase-7 activities with the Promega Caspase-Glo 3/7 Assay Kit. A total of 1.5 × 10^4 cells were seeded onto opaque 96-well tissue culture plates. After 24 ± 2 h of incubation, cells were stimulated with the same concentration of actinomycin D and TNF-α with different peptide concentrations. After 4 h of incubation in 5% CO2 at 37 °C, freshly prepared caspase 3/7 reagent was added to each well, followed by incubation for 1 h at room temperature. Luminescence was measured using a plate reader (CLARIOstar Plus, BMG Labtech, Ortenberg, Germany). Fold change was calculated from the ratio of luminescence of cell control to that of TNF-α-treated cells.

B1: TNFR1: Human TNFR1 (soluble) recombinant protein applied with TNF-α in the caspase 3/7 assay (protein)
chain: SVCPQGKYIHPQNNSICCTKCHKGTYLYNDCPGPGQDTDCRECESGSFTASENHLRHCLSCSKCRKEMGQVEISSCTVDRDTVCGCRKNQYRHYWSENLFQCFNCSLCLNGTVHLSCQEKQNTVCTCHAGFFLRENECVS
modifications: fluorescent label from the Monolith Protein Labeling Kit RED-NHS 2nd Generation (labelled target in MST)
notes: Human TNFR1 (soluble) recombinant protein applied with TNF-α in the caspase 3/7 assay
  effect on caspase 3/7 activity: significantly reduced caspase 3/7 activity

Reference: PMC12024540, “Peptide-Based Regulation of TNF-α-Mediated Cytotoxicity” (Biomolecules, 2025)
